This note sets out measurements from PMC5577609.

Test [1] concerns the target HRL40-1 (isolectin of Halimeda renschii lectin HRL40) (Halimeda renschii). Description: LC-ESI-MS of the intact and of the reduced, S-pyridylethylated protein; LTQ Orbitrap XL; intact isolectin against the subunit mass derived after reduction with tri-n-butylphosphine and alkylation with 4-vinylpyridine.
Test [2] addresses influenza virus envelope glycoprotein hemagglutinin (influenza virus (strain not stated for the immobilised hemagglutinin)). In words: SPR; Biacore X100; […], HBS-N (10 mM HEPES, 150 mM NaCl, pH 7.4); […], dissociation 600 s; Langmuir 1:1 fit.
Test [3] concerns the target Halimeda renschii lectin HRL40 (Halimeda renschii). Description: SDS-PAGE, non-reducing and reducing; 12% gel; samples heated at 100 C in 0.2% SDS with or without 2% 2-mercaptoethanol; about 40 kDa non-reduced, 10 kDa reduced.

In turn, “HRL40-1 (isolectin of Halimeda renschii lectin HRL40) (natural protein)” returned a stoichiometry N in test [1] of 4.
Consider “Halimeda renschii lectin HRL40 (natural protein)”, for which, in test [2], the Ka amounted to 2.71e+10 M⁻¹, the Kd was 0.0369 nM, the koff came out at 2.63e-06 s⁻¹ and the kon stood at 71400 M⁻¹ s⁻¹. Moreover, the stoichiometry N in test [3] was 4.
